Values belong to the binder of their own block, whether it stands above or below them.
Target: PD-L1 endogenously expressed on HL116 cells (human, UniProt Q9NZQ7 19-290)
Test: cell-based or functional assay

PD-L1 endogenously expressed on HL116 cells, sequence (Q9NZQ7 19-290): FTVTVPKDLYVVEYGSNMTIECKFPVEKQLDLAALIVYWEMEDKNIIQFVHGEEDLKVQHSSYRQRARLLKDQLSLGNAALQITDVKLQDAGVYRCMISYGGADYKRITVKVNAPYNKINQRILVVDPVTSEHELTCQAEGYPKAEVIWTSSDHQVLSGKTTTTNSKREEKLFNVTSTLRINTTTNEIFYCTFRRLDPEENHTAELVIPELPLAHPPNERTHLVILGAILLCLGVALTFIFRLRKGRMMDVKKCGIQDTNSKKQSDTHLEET

- decrease of biological activity after linker-cysteine PEGylation, HL116 reporter-assay: 10 fold
B1: 2LIG99-hIFNα1, linker-cysteine 12 kDa PEGylated (other)
chain: DVQLVESGGGLVQPGGSLRLSCTASGTIFSINRMDWFRQAPGKQRELVALITSGGTPAYADSAKGRFTISRDNSKNTVYLQMNSLRPEDTAVYYCHVSSGVYNYWGQGTLVTVSSGGSGGSGGSGGSGGSGGSGGSGGSGGSGGCGGSGGSGGSGGSGGSGGSGGSGGSGGSGGSCDLPETHSLDNRRTLMLLAQMSRISPSSCLMDRHDFGFPQEEFDGNQFQKAPAISVLHELIQQIFNLFTTKDSSAAWDEDLLDKFSTELYQQLNDLEACVMQEERVGETPLMNADSILAVKKYFRRITLYLTEKKYSPCAWEVVRAEIMRSLSLSTNLQERLRRKEHHHHHH
modifications: 12 kDa mPEG-Maleimide on the cysteine in the middle of the linker (about 75% monoPEGylated material)

- reduction in biological activity after N-terminal 20 kD PEGylation, HL116 reporter-assay: ~20 fold
B2: 2LIG99-hIFNα1, N-terminal 20 kDa PEGylated (other)
chain: B1 chain
modifications: 20 kDa mPEG-aldehyde on the N-terminal amine (mainly mono-PEGylated)

- drop of biological activity upon amine (poly)PEGylation, HL116 reporter-assay: ~20000 fold
B3: 2LIG99-hIFNα1, amine PEGylated (polyPEGylated, mPEG20K-Succinimidyl Carboxymethyl Ester) (other)
chain: B1 chain
modifications: several 20 kDa PEG groups on the N-terminal amine and/or lysine residues (mainly polyPEGylated, sites not stated)

From patent publication US20220378925A1 (ORIONIS BIOSCIENCES, published 2022)
